Where two headings read alike, the source gives them in different places.
Tests used:
pro-subtilisin E = target: T1, pro-subtilisin E (Bacillus subtilis, UniProt P04189); assay: In vitro processing of denatured pro-subtilisin to active subtilisin by dialysis; assay type: biochemical; settings: for Processing/conversion to active mature subtilisin: in vitro dialysis, e.g. 0.2M sodium phosphate pH 6.2
T1 construct: Pro-subtilisin consists of 352 amino acid residues; 77 residues for the amino-terminal pro-peptide plus 275 residues for the mature subtilisin; E. coli OmpA signal peptide (N); made in house; host or cells: E. coli (inclusion bodies)
T1 sequence (P04189 30-381 limits assumed): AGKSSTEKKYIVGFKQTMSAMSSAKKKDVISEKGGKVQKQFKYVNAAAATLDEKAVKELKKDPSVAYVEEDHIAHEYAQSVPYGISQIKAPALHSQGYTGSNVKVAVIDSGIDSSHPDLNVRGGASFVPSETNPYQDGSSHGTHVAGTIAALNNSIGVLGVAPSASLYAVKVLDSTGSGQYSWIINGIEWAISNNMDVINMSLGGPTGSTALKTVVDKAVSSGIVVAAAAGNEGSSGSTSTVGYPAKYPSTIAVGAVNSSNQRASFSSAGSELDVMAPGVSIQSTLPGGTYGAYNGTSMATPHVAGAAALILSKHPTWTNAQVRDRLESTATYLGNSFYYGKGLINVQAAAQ
From the text: Pro-subtilisin thus produced was solubilized in 6M guanidine-HCl and purified to homogeneity in the presence of 5M urea.
Its N-terminal amino acid sequence and the mobility in SDS-polyacrylamide gel electrophoresis were identical to those of authentic subtilisin.
It is interesting to note that the processing reaction to active subtilisin was independent of the pro-subtilisin concentration. Thus, the conversion is a first-order reaction.
The pro-subtilisin was in solution in a denaturant like guanidine-HCl or urea to prevent autoprocesssing to active subtitisin. For best results, the work was carried out with urea.
The method for activating the polypeptide comprises contacting it with the selected activating peptide. For pro-subtilisin E the efficiency of the conversion to active subtilisin E is independent of the pro-subtilisin concentration, indicating a first order reaction. The reaction is carried out in an appropriate buffer medium. […] At higher concentration, the ammonium sulfate appears to inhibit the proper folding of the polypeptide. When sulfate is used as the anion, there may be used as cations Na^+, K^+, and Li^+ or NH4^+ and equivalent others. Most efficient processing was obtained with 0.5M (NH4)2 SO4 in a 10 mM Tri-HCl buffer (at pH7.0), containing 1 mM CaCl2. Under these conditions, 1 mg of pro-subtilisin produced 89 U of subtilisin activity.

subtilisin E = target: T2, subtilisin E (Bacillus subtilis, UniProt P04189); assay: Competitive inhibition of subtilisin E by synthetic pro-peptides; assay type: biochemical; settings: competitive inhibitor
T2 construct: 77 residues for the amino-terminal pro-peptide plus 275 residues for the mature subtilisin; made in house
T2 sequence (P04189 107-381): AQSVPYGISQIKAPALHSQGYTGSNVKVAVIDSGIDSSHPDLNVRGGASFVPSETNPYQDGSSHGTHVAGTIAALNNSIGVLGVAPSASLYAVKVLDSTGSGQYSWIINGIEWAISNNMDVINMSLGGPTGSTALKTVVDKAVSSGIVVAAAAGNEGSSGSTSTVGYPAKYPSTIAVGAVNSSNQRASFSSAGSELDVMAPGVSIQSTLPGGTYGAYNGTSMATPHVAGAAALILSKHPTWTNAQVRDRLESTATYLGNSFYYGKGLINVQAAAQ
From the text: 5. The synthetic pro-peptide is able to specifically bind to the active center of subtilisin.

denatured subtilisin E = target: T3, denatured subtilisin E (Bacillus subtilis, UniProt P04189); assay: Renaturation (intermolecular refolding) of denatured subtilisin E with exogenously added pro-peptide; assay type: biochemical
T3 construct: 77 residues for the amino-terminal pro-peptide plus 275 residues for the mature subtilisin; made in house
T3 sequence (P04189 107-381): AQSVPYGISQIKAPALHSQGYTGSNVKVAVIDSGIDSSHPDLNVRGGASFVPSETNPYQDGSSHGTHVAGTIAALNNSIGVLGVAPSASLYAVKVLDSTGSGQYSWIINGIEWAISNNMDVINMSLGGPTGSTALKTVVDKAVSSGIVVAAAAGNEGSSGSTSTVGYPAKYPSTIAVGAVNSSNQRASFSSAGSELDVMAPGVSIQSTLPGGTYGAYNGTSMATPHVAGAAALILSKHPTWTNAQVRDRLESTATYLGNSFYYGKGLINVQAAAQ
From the text: The studies established that denatured subtilisin (without the pro-peptide)cannot be renatured to active subtilisin.
The pro-peptide of 77 residues for subtilisin E (see FIG. 1) was synthesized.
(§1) Other synthetic activating sequences were reacted with a selected polypeptide, in this case subtilisin, as described by Ohta et al. in Molecular Microbiology, 5(6), 1507-1510 (1991), which is incorporated herein by reference (and cofiled herewith). Active subtilisin was obtained.
(§2) The concentration of the activating peptide is preferably in a molar ratio of one of the activating protein to the polypeptide to be activated. At higher and lower concentration than 1 to 1, the renaturation yield was not as high; when the ratio exceeded 1, inhibition was observed. The activating peptide appears to act an inhibitor of the activated polypeptide.
(§3) Different concentrations of the different synthetic peptides were used a shown in the above-cited reference. The mixture of synthetic and polypeptide was dialyzed against 10 mM sodium phosphate, pH 7.0, that also contained 0.5M (NH4)2 SO4, 2 mM CaCl2 and 10 μm of 3,5-bis-trifluoromethylbenzeneboronic acid (BTFBA), a serine protease inhibitor.

[1] = target: T4, denatured subtilisin BPN' (Bacillus amyloliquefaciens, UniProt P00782); assay: Renaturation of denatured subtilisin BPN' with exogenously added pro-peptide; assay type: biochemical; settings: for Efficiency of renaturation of denatured subtilisin BPN' relative to the pro-77-mer: relative to pro-77-mer
T4 sequence (P00782 108-382): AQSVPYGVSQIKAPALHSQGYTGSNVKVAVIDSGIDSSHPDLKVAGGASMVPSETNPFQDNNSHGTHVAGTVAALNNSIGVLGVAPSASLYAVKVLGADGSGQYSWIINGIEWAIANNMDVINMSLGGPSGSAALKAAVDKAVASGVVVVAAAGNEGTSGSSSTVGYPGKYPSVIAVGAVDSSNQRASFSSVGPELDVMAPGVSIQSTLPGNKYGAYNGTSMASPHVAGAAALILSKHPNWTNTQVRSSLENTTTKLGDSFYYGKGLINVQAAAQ
From the text: Similarly, pro-peptides corresponding to -1 to -77, -1 to -68 and -1 to -63 for subtilisin BPN' were synthesized (See FIG. 1).
as §1, §2, §3

subtilisin BPN' = target: T5, subtilisin BPN' (Bacillus amyloliquefaciens); assay: competitive inhibition of enzyme activity
T5 chain: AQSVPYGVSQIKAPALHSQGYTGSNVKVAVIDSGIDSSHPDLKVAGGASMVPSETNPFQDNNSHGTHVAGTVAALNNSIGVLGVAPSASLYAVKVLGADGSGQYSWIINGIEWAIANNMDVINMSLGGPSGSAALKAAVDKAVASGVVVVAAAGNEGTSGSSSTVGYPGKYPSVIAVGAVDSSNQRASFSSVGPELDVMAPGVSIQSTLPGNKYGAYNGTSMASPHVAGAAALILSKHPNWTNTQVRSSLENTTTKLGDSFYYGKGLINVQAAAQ

[2] = target: T6, subtilisin E (Bacillus subtilis); assay: competitive inhibition of enzyme activity
T6 chain: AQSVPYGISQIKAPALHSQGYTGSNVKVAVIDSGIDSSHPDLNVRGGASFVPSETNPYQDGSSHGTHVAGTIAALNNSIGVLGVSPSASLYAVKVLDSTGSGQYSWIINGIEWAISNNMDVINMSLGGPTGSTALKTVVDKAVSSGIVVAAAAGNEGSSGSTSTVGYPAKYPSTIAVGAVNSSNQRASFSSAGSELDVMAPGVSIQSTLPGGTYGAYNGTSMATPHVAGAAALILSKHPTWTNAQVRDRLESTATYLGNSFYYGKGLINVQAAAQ

subtilisin Carlsberg = target: T7, subtilisin Carlsberg (Bacillus licheniformis, UniProt P00780); assay: Renaturation of acid-denatured subtilisin Carlsberg with exogenously added pro-peptide; assay type: biochemical
T7 construct: denatured subtilisin (without the pro-peptide)cannot be renatured to active subtilisin
From the text: This pro-peptide variant was effective even though there are quite a number of amino acid substitutions in both subtilisins BPN' and Carlsberg when compared with subtilisin E (See FIG. 1).

Molecule: O=S(=O)(F)Cc1ccccc1 [phenylmethanesulfonyl fluoride, reference compound]
- Inhibition of the processing of pro-subtilisin to active subtilisin (pro-subtilisin E): unable to inhibit

Molecule: synthetic pro-peptide of -1 to -77 for subtilisin E: synthesized pro-peptide of 77 residues (-1 to -77) for subtilisin E
- Ki (subtilisin E; listed as synthetic pro-peptide): 540 nM
- Ki (subtilisin E; read-out: Ki as competitive inhibitor of subtilisin E): ≤ 540 nM
- Refolding/renaturation of denatured subtilisin E to active enzyme (denatured subtilisin E): able to intermolecularly complement the refolding

B1: pro-63-mer (from -1 to -63) for subtilisin BPN' (peptide)
peptide: KQTMSTMSAAKKKDVISEKGGKVQKQFKYVDAASATLNEKAVKELKKDPSVAYVEEDHVAHAY
- Efficiency of renaturation of denatured subtilisin BPN' relative to the pro-77-mer [1]: 30-40%
- Ki (subtilisin BPN'): 790 nM

B2: processed subtilisin: active subtilisin obtained by in vitro processing of pro-subtilisin E (protein, UniProt P04189 107-381, looked up)
Subtilisin E: AQSVPYGISQIKAPALHSQGYTGSNVKVAVIDSGIDSSHPDLNVRGGASFVPSETNPYQDGSSHGTHVAGTIAALNNSIGVLGVAPSASLYAVKVLDSTGSGQYSWIINGIEWAISNNMDVINMSLGGPTGSTALKTVVDKAVSSGIVVAAAAGNEGSSGSTSTVGYPAKYPSTIAVGAVNSSNQRASFSSAGSELDVMAPGVSIQSTLPGGTYGAYNGTSMATPHVAGAAALILSKHPTWTNAQVRDRLESTATYLGNSFYYGKGLINVQAAAQ
- Specific activity of processed subtilisin relative to authentic subtilisin E (pro-subtilisin E): approximately half

B3: synthetic pro-peptide of -1 to -77 for subtilisin E (peptide)
peptide: AGKSSTEKKYIVGFKQTMSAMSSAKKKDVISEKGGKVQKQFKYVNAAAATLDEKAVKELKKDPSVAYVEEDHIAHEY
modifications: not checked
- Ki [2]: < 540 nM

B4: pro-77-mer (from -1 to -77) for subtilisin BPN' (peptide)
peptide: AGKSNGEKKYIVGFKQTMSTMSAAKKKDVISEKGGKVQKQFKYVDAASATLNEKAVKELKKDPSVAYVEEDHVAHAY
- Effectiveness for the renaturation of denatured subtilisin BPN' [1]: most effective
- Ki (subtilisin BPN'): 380 nM

B5: pro-subtilisin E: pro-subtilisin produced in E. coli as inclusion bodies, solubilized in 6M guanidine-HCl and purified in 5M urea (protein)
chain: AGKSSTEKKYIVGFKQTMSAMSSAKKKDVISEKGGKVQKQFKYVNAAAATLDEKAVKELKKDPSVAYVEEDHIAHEYAQSVPYGISQIKAPALHSQGYTGSNVKVAVIDSGIDSSHPDLNVRGGASFVPSETNPYQDGSSHGTHVAGTIAALNNSIGVLGVSPSASLYAVKVLDSTGSGQYSWIINGIEWAISNNMDVINMSLGGPTGSTALKTVVDKAVSSGIVVAAAAGNEGSSGSTSTVGYPAKYPSTIAVGAVNSSNQRASFSSAGSELDVMAPGVSIQSTLPGGTYGAYNGTSMATPHVAGAAALILSKHPTWTNAQVRDRLESTATYLGNSFYYGKGLINVQAAAQ
- Subtilisin activity produced from 1 mg of pro-subtilisin (pro-subtilisin E; 0.5M (NH4)2SO4 in 10 mM Tris-HCl pH 7.0, 1 mM CaCl2): 89 U
- Conversion efficiency of pro-subtilisin to active subtilisin (pro-subtilisin E; calculated from 89 U versus 470 U): approximately 20%
- Theoretical maximum activity for 1 mg of pro-subtilisin E (pro-subtilisin E; estimated): 470 U
- Processing/conversion to active mature subtilisin (pro-subtilisin E): converted to active subtilisin

B6: pro-subtilisin E with the Asp32 to Asn active site mutation: pro-subtilisin E with active site mutation Asp32 to Asn, used as exogenous pro-peptide source (protein, UniProt P04189 30-381, looked up, variant D32N)
pro-form: AGKSSTEKKYIVGFKQTMSAMSSAKKKDVISEKGGKVQKQFKYVNAAAATLDEKAVKELKKDPSVAYVEEDHIAHEYAQSVPYGISQIKAPALHSQGYTGSNVKVAVINSGIDSSHPDLNVRGGASFVPSETNPYQDGSSHGTHVAGTIAALNNSIGVLGVAPSASLYAVKVLDSTGSGQYSWIINGIEWAISNNMDVINMSLGGPTGSTALKTVVDKAVSSGIVVAAAAGNEGSSGSTSTVGYPAKYPSTIAVGAVNSSNQRASFSSAGSELDVMAPGVSIQSTLPGGTYGAYNGTSMATPHVAGAAALILSKHPTWTNAQVRDRLESTATYLGNSFYYGKGLINVQAAAQ
modifications: pro-form
- Renaturation of acid-denatured subtilisin BPN' ([1]; acid-denatured): able to renature
- Processing/conversion to active mature subtilisin (pro-subtilisin E; listed as pro-subtilisin with an active site mutation (Asp32 to Asn)): cannot be autoprocessed
- Processing/conversion to active mature subtilisin (pro-subtilisin E; listed as pro-subtilisin with an active-site mutation (aspartic acid at position 32 to asp)): unable to be processed
- Renaturation of acid-denatured subtilisin Carlsberg (subtilisin Carlsberg): able to renature
- Refolding/renaturation of denatured subtilisin E to active enzyme (denatured subtilisin E): active subtilisin is formed

B7: Streptomyces subtilisin inhibitor: inhibitor tested on processing of pro-subtilisin to active subtilisin (protein)
chain: DAPSALYAPSALVLTVGKGVSATTAAPERAVTLTCAPGPSGTHPAAGSACADLAAVGGDLNALTRGEDVMCPMVYDPVLLTVDGVWQGKRVSYERVFSNECEMNAHGSSVFAF
- Inhibition of the processing of pro-subtilisin to active subtilisin (pro-subtilisin E): unable to inhibit

B8: pro-68-mer (from -1 to -68) for subtilisin BPN' (peptide)
peptide: YIVGFKQTMSTMSAAKKKDVISEKGGKVQKQFKYVDAASATLNEKAVKELKKDPSVAYVEEDHVAHAY
- Efficiency of renaturation of denatured subtilisin BPN' relative to the pro-77-mer [1]: 30-40%
- Ki (subtilisin BPN'): 760 nM
